Results reported in patent US20230272390A1, “COMPOSITIONS AND METHODS FOR HEMOGLOBIN PRODUCTION” (THE CHILDREN'S HOSPITAL OF PHILADELPHIA, priority 2020, published 2023).

What was measured:
[1] = target: T1, ZNF410 ZF1-5 (GST removed) (Homo sapiens, UniProt Q86VK4 SEQ:217-366); experiment: structure; crystal structure 2.75 A, PDB 6WMI; conditions: tags: none (GST cleaved with PreScission protease); label: FAM 5' (top strand) in FP
T1 sequence: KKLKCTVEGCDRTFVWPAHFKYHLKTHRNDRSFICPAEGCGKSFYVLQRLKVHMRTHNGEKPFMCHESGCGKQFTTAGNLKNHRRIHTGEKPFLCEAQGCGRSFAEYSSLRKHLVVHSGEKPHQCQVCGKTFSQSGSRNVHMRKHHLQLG

[2] = target: T2, ZNF410 ZF1-5 (GST fusion) (Homo sapiens, UniProt Q86VK4 SEQ:217-366); experiment: FP; no measurable binding up to 2.5 uM; shares 7/17 bp with consensus; conditions: tags: GST N-terminal (pGEX-6P-1, pXC2180); label: FAM 5' (top strand)
T2 sequence: T1 sequence
Description: To further gain insight into the molecular basis of how the ZNF410 tandem ZF domain recognizes its targeting DNA sequence, crystallization of the ZNF410-DNA complex was performed. The binding affinity of the ZNF410 ZF domain (ZF1-5) with the consensus motif was quantified by fluorescence polarization using purified GST fusion protein (Patel, et al. (2016) Methods Enzymol., 573:387-401). […] Next, the crystal structure of the ZF domain in complex with the same 17-bp oligo (5′-3′: […] (SEQ ID NO: 19); 3′-5′: […] (SEQ ID NO: 20)) containing the consensus motif was determined. The structure of the protein-DNA complex was solved by the single-wavelength anomalous diffraction (SAD) method (Hendrickson, et al. (1990) EMBO J., 9:1665-1672) at 2.75 Å resolution. As in conventional C2H2 ZF proteins (Wolfe, et al. (2000) Annu. Rev. Biophys. Biomol. Struct., 29:183-212), each of five fingers of ZNF410 comprises two strands and a helix, with two histidine residues in the helix together with one cysteine in each strand coordinating a zinc ion, forming a characteristic tetrahedral C2-Zn—H2 structural unit that confers rigidity to the fingers. When bound to DNA, ZF1-5 occupies the DNA major groove, with their α-helices toward DNA and the strands and the C2-Zn—H2 units facing outside (FIGS. 6B and C). […]

[3] = system: motifs from the CHD4 promoter and enhancer sites; experiment: EMSA with COS-7 nuclear extracts and radiolabeled probes; format: binding, human; conditions: COS nuclear extracts, FLAG-tagged constructs, radiolabeled CHD4 motif probes
Description: Nuclear extracts were prepared from COS-7 cells transiently transfected with ZNF410 full-length and ZNF410 ZF1-5 plasmids. FuGENE® 6 (Promega) was used to transfect 5 μg of vector into 100 mm plates of COS-7 cells. A pcDNA3 empty vector was used as control. Cells were harvested 48 hours after transfection and nuclear extracts prepared (Andrews, et al. (1991) Nucleic Acids Res., 19:2499).
EMSAs were performed (Crossley, et al. (1996) Mol. Cell Biol., 16:1695-1705). The sense oligonucleotide was labelled with [γ-^32P]-adenosine triphosphate (Perkin Elmer) and boiled at 100° C. for 1 minute before addition of the antisense oligonucleotide and annealing of probe via slow cooling from 100° C. to room temperature. Probes were purified using Quick Spin Columns for radio-labelled DNA Purification (Roche). Nuclear extracts were harvested from COS-7 cells and samples and loaded on a 6% native polyacrylamide gel in TBE buffer (45 mM Tris, 45 mM boric acid, 1 mM EDTA). A ‘COS empty’ control lane was included to show binding of any background endogenous protein to the probe. […] Gels were run at 250 V for 1 hour, 45 minutes at 4° C. then dried under vacuum. […]
ZNF410 contains five tandem C2H2-type zinc fingers (ZFs) potentially involved in DNA binding (FIG. 5A). […] Direct DNA binding by full length (FL) ZNF410 to sequences found at the CHD4 gene was assessed by electrophoretic mobility shift assays (EMSAs). […]

endogenous ZNF410 = target: T3, endogenous ZNF410 (Homo sapiens, UniProt Q86VK4); experiment: RT-qPCR in HUDEP-2 cells overexpressing HA-tagged ZNF410 constructs; format: cell-based
T3 construct: endogenous in cells; host or cells: HUDEP-2 (HUDEP-2-Cas9) cells, differentiated
T3 sequence (Q86VK4 1-478): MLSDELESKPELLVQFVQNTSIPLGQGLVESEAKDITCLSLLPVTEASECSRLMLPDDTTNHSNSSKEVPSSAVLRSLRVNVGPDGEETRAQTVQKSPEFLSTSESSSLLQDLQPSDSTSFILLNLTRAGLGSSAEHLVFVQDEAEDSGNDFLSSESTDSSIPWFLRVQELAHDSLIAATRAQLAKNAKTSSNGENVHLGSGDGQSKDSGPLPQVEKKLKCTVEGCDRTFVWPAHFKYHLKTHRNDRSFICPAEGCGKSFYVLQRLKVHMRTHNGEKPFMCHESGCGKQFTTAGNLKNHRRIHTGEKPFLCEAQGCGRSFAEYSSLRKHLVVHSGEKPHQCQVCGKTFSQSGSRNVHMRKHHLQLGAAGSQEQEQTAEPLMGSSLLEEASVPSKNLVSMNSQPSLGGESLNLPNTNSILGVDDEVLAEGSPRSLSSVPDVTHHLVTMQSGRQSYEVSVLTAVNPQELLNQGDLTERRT
Description: HUDEP-2 cells were cultured and differentiated as described (Kurita, et al. (2013) PLoS One 8:e59890). Briefly, StemSpan™ Serum-Free Expansion Medium (SFEM) supplemented with 50 ng/ml human stem cell factor (SCF), 10 μM dexamethasone, 1 μg/ml doxycycline, 3 IU/ml erythropoietin and 1% penicillin/streptomycin was utilized for routine cell maintenance. Cell density was kept at 0.1-1×10^6/ml. HUDEP-2 cells were differentiated for 6-7 days in IMDM supplemented with 50 ng/ml human SCF, 3 IU/ml erythropoietin, 2.5% fetal bovine serum, 250 μg/ml holo-transferrin, 10 ng/ml heparin, 10 μg/ml insulin, 1 μg/ml doxycycline and 1% penicillin/streptomycin.
SgRNAs were cloned into a lentiviral U6-sgRNA-EFS-GFP/mCherry expression vector (LRG, Addgene: #65656) by BsmBI digestion. The ZNF410 cDNA (clone ID: OHu10535), CHD4 cDNA (clone ID: OHu28780) were purchased from GenScript and were sub-cloned into a lentiviral vector pSDM101-IRES-GFP. ZNF410 variants were sub-cloned into pSDM101-IRES-GFP vector. The N-terminal HA tag was introduced by PCR. For EMSA, the ZNF410 full length or different ZF versions were sub-cloned into mammalian expression vector pcDNA3.
Lentivirus was produced as described (Grevet, et al. (2018) Science 361:285-290). Briefly, 10-20 μg of expression vectors, 5-10 μg of pVSVG (pMD2.G) and 7.5-15 μg of psPAX2 package plasmids, and 80 μl of 1 mg/ml polyethylenimine (PEI) were mixed, incubated for 15-20 minutes, and added to HEK293T cells grown in 10 cm plates to above 90% confluence. Media were replaced 6-8 hours post transfection, virus was collected 24 hours and 48 hours post-transfection and pooled. For infection, virus-containing supernatant was mixed with the indicated cell lines with 8 μg/ml polybrene and 10 mM HEPES, and then spun at 2250 rpm for 1.5 hours at room temperature. Infected HUDEP-2 cells were selected for mCherry+ or GFP+ cell sorting at 48 hours post-infection.
Total RNA was purified using the RNeasy® Plus Mini Kit (Qiagen), including an on-column DNAse treatment using RNase-free DNase set (Qiagen) to remove genomic DNA. Reverse transcription was accomplished using iScript™ Supermix (Bio-Rad). qPCR reactions were prepared with Power SYBR® Green (ThermoFisher Scientific). Quantification was performed using the ΔΔCT method.
Overexpression of ZF1-5 but not ZF2-4 should compete with endogenous ZNF410 for chromatin binding, thus acting in a dominant-negative manner. To test this hypothesis, a construct containing HA-tagged ZF1-5 or ZF2-4 driven by the EF1α promoter was introduced via lentiviral infection into HUDEP-2 cells. As control, the expression of full-length HA-tagged ZNF410 was forced. […] Moreover, full-length HA-ZNF410 when overexpressed to similar levels to HA-ZF1-5 also produced similar binding patterns (FIG. 4A). […] Thus, the ZF region is sufficient for chromatin occupancy but insufficient for CHD4 gene activation. […] Finally, the impact of ZNF410 expression on γ-globin levels was also measured.

B1: ZNF410 consensus oligo 17 bp (dsDNA)
DNA 1: CACATCCCATAATAATG
DNA 2: CATTATTATGGGATGTG
[1]
  binding result: binds

B2: negative control oligo (dsDNA)
DNA 1: TCCACTGCCAGGACCTTT
DNA 2: AAAAGGTCCTGGCAGTGG
[2]
  binding result: no binding

B3: ZNF410 FL: full-length tagged human ZNF410 (478 amino acids) overexpressed as control (protein)
chain: T3 sequence (Q86VK4 1-478)
modifications: left off: small tags and cut ends
notes: full-length tagged human ZNF410 (478 amino acids) overexpressed as control
[3]
  DNA binding in EMSA: comparable binding to each of the four DNA probes
Endogenous ZNF410; overexpression in HUDEP-2 cells
  effect on CHD4 expression: increased
Endogenous ZNF410; overexpression in differentiated HUDEP-2 cells
  effect on γ-globin mRNA levels: slight decrease
